The results in this text go back to patent US20190062453A1 (Hoffmann-La Roche, published 2019).

Read-outs that look alike come from different tables or passages of the source.

Experiment [1] addresses T1, Human FAP ectodomain + poly-lys-tag + his6-tag (human, UniProt Q12884 27-760).
T1 construct: also called recombinant soluble human FAP; hFAP
In words: Affinity human, method not stated.

The target in experiment [2] is murine FAP on recombinant 3T3 cells (murine, UniProt P97321 1-761). In words: cell-based or functional assay.
Experiment [3] addresses T1, Human FAP ectodomain + poly-lys-tag + …. In words: SPR (Biacore), bispecific antibody bound to immobilised human DR5-Fc, recombinant human FAP as second analyte (simultaneous binding). (SPR reads the build-up and loss of mass on a sensor chip optically.)
The target of experiment [4] is T2, Cynom. DR5 (ECD)-AcTev-Fc-Avi (cynomolgus).
T2 construct: also called cynomolgus DR5; cy DR5
In words: SPR (Biacore), affinity, 2+2 captured and DR5 injected.

Experiment [5] concerns the target T3, human DR5 (recombinant, fusion format not stated for the assay) (human, UniProt O14763 56-207).
T3 construct: all antigen constructs carry ECD aa 56-207; also called hu DR5; huDR5
The description is as above.

Experiment [6] has as its target T2, Cynom. DR5 (ECD)-AcTev-Fc-Avi. In words: SPR (Biacore), 2+2 over immobilised DR5 ECD.
The target of experiment [7] is T3, human DR5 (recombinant, fusion format …). In words: SPR (Biacore), 2+2 over immobilised DR5 ECD.
Experiment [8] addresses T4, cynomolgus DR5 in the TagLite assay (cynomolgus).
T4 construct: also called cy DR5 (TagLite)
In words: TagLite TR-FRET on cells. A general note: In TR-FRET formats the signal depends on donor and acceptor labels being close together.

Experiment [9] has as its target T5, Hu DR5 (ECD)-AcTev-Fc-Avi (human).
T5 construct: dimeric Fc fusion, biotinylated on the Avi tag where immobilised on streptavidin; also called human DR5-Fc; huDR5Fc
In words: SPR (Biacore), biotinylated human DR5-Fc on a streptavidin chip, bispecific antibody as first analyte.

Experiment [10] concerns the target T1, Human FAP ectodomain + poly-lys-tag + …. In words: SPR (Biacore), bispecific antibody bound to immobilised human DR5-Fc, recombinant soluble human FAP as second analyte (simultaneous binding).
In another experiment the target is T6, human FAP on cells (human, UniProt Q12884 1-760).
T6 construct: whole, on cells; also called human FAP expressed on recombinant HEK293 cells; FAP on GM05389 fibroblasts
In words: FACS on recombinant HEK293 cells expressing human FAP.

Experiment [11] deals with T7, Murine FAP ectodomain + poly-lys-tag + his6-tag (murine, UniProt P97321 27-761).
T7 construct: also called recombinant soluble murine FAP
In words: SPR (Biacore), bispecific antibody bound to immobilised human DR5-Fc, recombinant soluble murine FAP as second analyte (simultaneous binding).

Experiment [12] has as its target T5, Hu DR5 (ECD)-AcTev-Fc-Avi. In words: SPR (Biacore), biotinylated human DR5-Fc on a streptavidin chip, bispecific antibody as first analyte. This is another data set of the same source.
The target of experiment [13] is T7, Murine FAP ectodomain + poly-lys-tag + …. In words: SPR (Biacore), bispecific antibody bound to immobilised human DR5-Fc, recombinant soluble murine FAP as second analyte (simultaneous binding). This is another data set of the same source.
Experiment [14] addresses T1, Human FAP ectodomain + poly-lys-tag + …. In words: SPR (Biacore), bispecific antibody bound to immobilised human DR5-Fc, recombinant soluble human FAP as second analyte (simultaneous binding). The source holds these as a separate data set.

B1: 28H1 (antibody, V domains shown)
VH: EVQLLESGGGLVQPGGSLRLSCAASGFTFSSHAMSWVRQAPGKGLEWVSAIWASGEQYYADSVKGRFTISRDNSKNTLYLQMNSLRAEDTAVYYCAKGWLGNFDYWGQGTLVTVSS
VL: EIVLTQSPGTLSLSPGERATLSCRASQSVSRSYLAWYQQKPGQAPRLLIIGASTRATGIPDRFSGSGSGTDFTLTISRLEPEDFAVYYCQQGQVIPPTFGQGTKVEIK
notes: also called FAP(28H1); 28H1 (IgG)
For B1, in experiment [1], the Kd (as a rule, the free concentration of one partner at which half of the binding sites on the other are occupied at equilibrium, for simple one-to-one binding) amounted to 2.6 nM.

B2: DR5TAA-0033 (bispecific antibody, human IgG1, kappa)
heavy: not shown
light: ADIVMTQTPASVSEPVGGTVTIKCQASQSISTYLSWYQQKPGQPPKRLIYKASTLASGVPSRFKGSGSGTDFTLTIRDLECADAATYYCQPNSGIATYGAAFGGGTEVVVKRTVAAPSVFIFPPSDEQLKSGTASVVCLLNNFYPREAKVQWKVDNALQSGNSQESVTEQDSKDSTYSLSSTLTLSKADYEKHKVYACEVTHQGLSSPVTKSFNRGEC
chain: EIVLTQSPGTLSLSPGERATLSCRASQSVSRSYLAWYQQKPGQAPRLLIIGASTRATGIPDRFSGSGSGTDFTLTISRLEPEDFAVYYCQQGQVIPPTFGQGTKVEIKSSASTKGPSVFPLAPSSKSTSGGTAALGCLVKDYFPEPVTVSWNSGALTSGVHTFPAVLQSSGLYSLSSVVTVPSSSLGTQTYICNVNHKPSNTKVDKKVEPKSCD
notes: also called 0011-28H1
With B2, in experiment [2], the “Cell Death Detection ELISA, DLD-1 cells with 3T3 cells expressing murine FAP” value turned out to be 10 fold. The binding result in [3] is recorded as “binds”. The Kd in experiment [4] came out at 20.2 nM; in experiment [5], 9.8 nM. For the same molecule, the results for the Avidity in [6], in experiment [7] and in experiment [8] were 3.72 nM, 0.1 nM and 0.3 nM, respectively.

B3: Drozitumab-X-FAP_A (2 + 2) (bispecific antibody, human IgG1, lambda)
heavy: not shown
chain: B2 chain
light: SELTQDPAVSVALGQTVRITCSGDSLRSYYASWYQQKPGQAPVLVIYGANNRPSGIPDRFSGSSSGNTASLTITGAQAEDEADYYCNSADSSGNHVVFGGGTKLTVLGQPKAAPSVTLFPPSSEELQANKATLVCLISDFYPGAVTVAWKADSSPVKAGVETTTPSKQSNNKYAASSYLSLTPEQWKSHRSYSCQVTHEGSTVEKTVAPTECS
notes: 4G8 VH-CL fused to the C-terminus of the Drozitumab heavy chain; also called GA803_A01_E02A_014
Take B3: the binding result (in [9]; in experiment [10]; with human FAP on cells; in experiment [11]) was “binds” throughout.

B4: DR5TAA-0035 (bispecific antibody, human IgG1, kappa)
heavy: not shown
light: ADIVMTQTASPVSAAVGGTVTINCQASQSISSSYVSWYQQKPGQPPKLLIYKASTLASGVPSRFSGSGSGTQLSLTIRGVQCDDAATYYCLYGYSDVSSSEYVFGGGTEVVVRRTVAAPSVFIFPPSDEQLKSGTASVVCLLNNFYPREAKVQWKVDNALQSGNSQESVTEQDSKDSTYSLSSTLTLSKADYEKHKVYACEVTHQGLSSPVTKSFNRGEC
chain: B2 chain
notes: also called 0016-28H1
For the molecule B4, in experiment [2], the “Cell Death Detection ELISA, DLD-1 cells with 3T3 cells expressing murine FAP” value was found to be 10 fold. Besides, the binding result in experiment [3] was “binds”. For the same molecule, the Kd in [4] turned out to be 2 nM; in experiment [5] it was 5.1 nM. In addition, the values for the Avidity in [7] and in experiment [8] were 0.08 nM and 0.7 nM, respectively.

B5: Drozitumab-X-FAP_B (2 + 2) (bispecific antibody, human IgG1, lambda)
heavy: not shown
chain: not shown
light: B3 light
notes: 4G8 VL-CH1 fused to the C-terminus of the Drozitumab heavy chain; also called GA803_A01_E02A_015
Consider B5, for which the binding result (in experiment [12]; in experiment [13]; in experiment [14]; in the experiment with human FAP on cells) was “binds” throughout.
